The assay deals with T1, ULBP2 α1α2 domain, C-terminal 6×-His (human, UniProt Q9BZM5 29-212).
T1 construct: ULBP2, human, α1α2 domains, UniProtKB Q9BZM5 residues 29-212; monomeric protein; also called wild-type ULBP2; MIC-His ligand; source: Expi293 supernatant, purified (Ni-NTA); not shown: His6, C-terminal, kept
T1 sequence (looked up): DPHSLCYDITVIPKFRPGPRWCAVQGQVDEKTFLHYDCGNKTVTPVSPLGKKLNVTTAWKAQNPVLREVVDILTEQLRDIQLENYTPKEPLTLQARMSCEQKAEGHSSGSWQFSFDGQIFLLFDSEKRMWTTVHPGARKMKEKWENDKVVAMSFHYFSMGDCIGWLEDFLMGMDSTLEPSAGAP
The assay is described as follows: BLI; FortéBio Octet; Fc-wtNKG2D, Fc-iNKG2D.YA or Fc-iNKG2D.AF captured on anti-human IgG Fc capture (AHC) biosensor tips; titration series of monomeric MIC-His ligands or monomeric ULBP2 variants. Particulars: both partners purified. (In BLI a coated tip is dipped into the sample, and binding shifts an interference pattern.)

B1: Fc-wtNKG2D (Fc fusion, human, UniProt P26718 78-216, looked up)
chain: FLNSLFNQEVQIPLTESYCGPCPKNWICYKNNCYQFFDESKNWYESQASCMSQNASLLKVYSKEDQDLLKLVKSYHWMGLVHIPTNGSWQWEDGSILSPNLLTIIEMQKGDCALYASSFKGYIENCSTPNTYICMQRTV
notes: NKG2D wild-type ectodomain, human, UniProtKB P26718 residues 78-216; NKG2D is fused to the C-terminus of the Fc through a factor Xa site linker Ile-Glu-Gly-Arg (IEGR); also called wild-type NKG2D; source: Expi293 cells, secreted, purified (Protein A, SEC); not shown: Fc (human IgG1), N-terminal, kept
On to B1, for which the binding result is on record as “binds”.

The values are drawn from paper PMC7283332, “convertibleCARs: A chimeric antigen receptor system for flexible control of activity and antigen targeting” (Communications Biology, 2020).
